Here are results for two molecules from publication PMC2886031.

Read-outs that look alike come from different tables or passages of the source.

The target of data set [1] is T1, PacI (R.PacI) restriction endonuclease (Pseudomonas alcaligenes, UniProt D5MNX7 1-142).
T1 sequence: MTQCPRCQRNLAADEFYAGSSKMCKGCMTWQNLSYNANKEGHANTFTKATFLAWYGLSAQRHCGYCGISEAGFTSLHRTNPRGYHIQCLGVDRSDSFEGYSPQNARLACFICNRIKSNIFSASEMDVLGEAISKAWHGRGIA
Kind of data set: X-ray crystallography.

In data set [2] the target is T1, PacI (R.PacI) restriction endonuclease. Kind of data set: X-ray crystallography. The source holds these as a separate data set.

B1: 18 bp PacI cognate duplex, cleaved product (dsDNA)
DNA 1: GAGGCTTAAT
DNA 2: TAAGCCGC
DNA 3: GCGGCTTAAT
DNA 4: TAAGCCTC
modifications: 5' phosphate at the cleaved ends
As to B1, in data set [1], the binding result is “binds”.

B2: 18 bp PacI cognate duplex (uncleaved) (dsDNA)
DNA 1: GAGGCTTAATTAAGCCGC
DNA 2: GCGGCTTAATTAAGCCTC
For the molecule B2, the binding result in data set [2] was “binds”.
